Data as given in US9657104B2, “Anti-c-Met/anti-EGFR bispecific antibodies” (Samsung Electronics Co., Ltd., priority 2013, dated 2017).

System: c-Met and EGFR
Experiment: Co-localization of c-Met and EGFR by confocal microscopy
Assay type: cell-based
Settings: 1 μg/mL, 37° C., 4 hours; MKN45 and EBC1 cell lines; FIGS. 7 and 8
Method: The MKN45 cell line and the EBC1 cell line were prepared in amounts of 4×10^4 cell/well, respectively, to which L3-1Y-IgG2 prepared in Reference Example 1, anti-EGFR scFv prepared in Reference Example 2, and the anti-c-Met/anti-EGFR bispecific antibody ME03S prepared in Example 1 were each added individually or in combination to result in the concentration of 1 μg/mL per well (in case of the combination treatment, to result in 1 μg/mL each) and treated at 37° C. for 4 hours. The cells were treated with 4% (v/v) formaldehyde for 15 min to immobilize them on a plate, and washed three times with PBS. Thereafter, the cells were treated with a blocking buffer (0.5% triton x-100 and 5% donkey serum) at a room temperature for one hour and then treated with a 1:100 dilution of the first antibodies (c-Met primary antibody; #FAB3582A, R&D systems, EGFR primary antibody; #5616, Cell signaling) against c-Met and EGFR, respectively in amounts of 100 μA at 4° C. for 15 hours. After the cells were washed three time with PBS, they were treated with a 1:2000 dilution of the secondary antibody (#A21433, Invitrogen) in an amount of 100 μA at a room temperature for 1 hour and washed three times with PBS to prepare a plate with a mounting medium (#H-1200, Vector).

B1: anti-EGFR scFv: scFv with heavy chain variable region SEQ ID NO: 109, (GGGGS)3 linker, light chain variable region SEQ ID NO: 111 (antibody, V domains shown)
VH: QVQLVQSGAEVKKPGSSVKVSCKASGFTFTDYKIHWVRQAPGQGLEWMGYFNPNSGYSTYAQKFQGRVTITADKSTSTAYMELSSLRSEDTAVYYCARLSPGGYYVMDAWGQGTTVTVSS
VL: DIQMTQSPSSLSASVGDRVTITCRASQGINNYLNWYQQKPGKAPKRLIYNTNNLQTGVPSRFSGSGSGTEFTLTISSLQPEDFATYYCLQHNSFPTFGQGTKLEIKRT
modifications: (GGGGS)3 linker; Synthetic (heavy-chain variable region of anti-EGFR antibody); Synthetic (light-chain variable region of anti-EGFR antibody)
location of c-Met and EGFR in the cells: EGFR still locates on cell membranes
